In data set [1] the target is T1, AGO2 T357M (Homo sapiens, UniProt Q9UKV8 1-859, T357M;S387D;S824A;S828D;S831D;S834A). Briefly: northern blot of purified complex; ~1:1 AGO2:miR-122; 30 mM Tris pH 8.0, 100 mM KOAc, 2 mM MgOAc, 0.5 mM TCEP, 0.005% NP-40, 0.01 mg/ml yeast tRNA, room temperature, 2 h (equilibrium); association buffer listed without Mg. Conditions: protein: recombinant; tags: His6 (N-terminal, pFastBac HTA).

In data set [2] the target is T2, AGO2 A367P (Homo sapiens, UniProt Q9UKV8 1-859, A367P;S387D;S824A;S828D;S831D;S834A). The description is as above. The note with it: protein: recombinant; tags: His6 (N-terminal, pFastBac HTA).
T2 sequence (Q9UKV8 whole entry A367P/S387D/S824A/S828D/S831D/S834A): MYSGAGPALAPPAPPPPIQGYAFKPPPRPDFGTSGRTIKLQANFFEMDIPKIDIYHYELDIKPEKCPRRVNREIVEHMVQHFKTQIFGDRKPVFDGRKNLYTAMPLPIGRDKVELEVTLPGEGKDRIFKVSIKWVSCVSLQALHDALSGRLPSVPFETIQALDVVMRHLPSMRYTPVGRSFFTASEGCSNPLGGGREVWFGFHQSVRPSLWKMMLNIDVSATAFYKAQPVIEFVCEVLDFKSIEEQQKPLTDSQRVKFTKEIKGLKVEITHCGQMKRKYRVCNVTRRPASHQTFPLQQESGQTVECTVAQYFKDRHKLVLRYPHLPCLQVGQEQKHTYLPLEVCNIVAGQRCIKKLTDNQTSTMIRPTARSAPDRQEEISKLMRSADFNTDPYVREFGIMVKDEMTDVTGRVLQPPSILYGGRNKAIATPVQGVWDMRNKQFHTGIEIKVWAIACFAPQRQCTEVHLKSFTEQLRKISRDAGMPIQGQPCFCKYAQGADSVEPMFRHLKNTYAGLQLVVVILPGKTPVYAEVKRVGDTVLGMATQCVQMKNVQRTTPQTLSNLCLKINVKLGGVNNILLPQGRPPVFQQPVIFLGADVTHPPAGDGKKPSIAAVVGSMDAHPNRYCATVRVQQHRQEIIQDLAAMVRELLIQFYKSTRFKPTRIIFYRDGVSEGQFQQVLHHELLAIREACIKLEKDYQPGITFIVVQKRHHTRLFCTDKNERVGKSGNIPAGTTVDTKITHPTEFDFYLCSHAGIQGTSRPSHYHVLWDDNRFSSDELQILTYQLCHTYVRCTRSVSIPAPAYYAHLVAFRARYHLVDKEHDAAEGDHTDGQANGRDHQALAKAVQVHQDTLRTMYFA
Data set [3] concerns the target T3, AGO2 L192P (Homo sapiens, UniProt Q9UKV8 1-859, L192P;S387D;S824A;S828D;S831D;S834A). The description is as above. Conditions: protein: recombinant; tags: His6 (N-terminal, pFastBac HTA).
Data set [4] concerns the target T4, AGO2 F182del (Homo sapiens, UniProt Q9UKV8 1-859, S387D;S824A;S828D;S831D;S834A;del182-182). Described as above. The note with it: protein: recombinant; tags: His6 (N-terminal, pFastBac HTA).
Data set [5] has as its target T1, AGO2 T357M. Description: pull-down; recovery similar to WT; 30 mM Tris pH 8.0, 100 mM KOAc, 2 mM MgOAc, 0.5 mM TCEP, 0.005% NP-40, 0.01 mg/ml yeast tRNA, room temperature, 2 h (equilibrium); association buffer listed without Mg. The note with it: protein: recombinant; tags: His6 (N-terminal, pFastBac HTA); label: biotin on capture oligo; guide paired in part with capture oligo.

Data set [6] addresses T2, AGO2 A367P. The data set is described as above. The note with it: protein: recombinant; tags: His6 (N-terminal, pFastBac HTA); label: biotin on capture oligo; guide paired in part with capture oligo.
For data set [7], the target named is T3, AGO2 L192P. The data set is described as above. Conditions: protein: recombinant; tags: His6 (N-terminal, pFastBac HTA); label: biotin on capture oligo; guide paired in part with capture oligo.
Data set [8] has as its target T4, AGO2 F182del. The data set is described as above. The note with it: protein: recombinant; tags: His6 (N-terminal, pFastBac HTA); label: biotin on capture oligo; guide paired in part with capture oligo.
Data set [9] has as its target T1, AGO2 T357M. Briefly: filter binding; 2 mM Mg2+; 30 mM Tris pH 8.0, 100 mM KOAc, 2 mM MgOAc, 0.5 mM TCEP, 0.005% NP-40, 0.01 mg/ml yeast tRNA, room temperature, 2 h (equilibrium); association buffer listed without Mg. Conditions: protein: recombinant; tags: His6 (N-terminal, pFastBac HTA); label: 32P 5' on target; guide g2-g8 paired with target ACACUCC; remainder unpaired.

The target of data set [10] is T1, AGO2 T357M. Description: filter binding (dissociation); 300 nM unlabeled target chase; 30 mM Tris pH 8.0, 100 mM KOAc, 2 mM MgOAc, 0.5 mM TCEP, 0.005% NP-40, 0.01 mg/ml yeast tRNA, room temperature, 2 h (equilibrium); association buffer listed without Mg. Conditions: protein: recombinant; tags: His6 (N-terminal, pFastBac HTA); label: 32P 5' on target; guide g2-g8 paired with target ACACUCC; remainder unpaired.

Data set [11] deals with T2, AGO2 A367P. Described as above. The note with it: protein: recombinant; tags: His6 (N-terminal, pFastBac HTA); label: 32P 5' on target; guide g2-g8 paired with target ACACUCC; remainder unpaired.
Data set [12] has as its target T2, AGO2 A367P. Description: filter binding (association); AGO2-miR-122 0.25-1.5 nM; 30 mM Tris pH 8.0, 100 mM KOAc, 2 mM MgOAc, 0.5 mM TCEP, 0.005% NP-40, 0.01 mg/ml yeast tRNA, room temperature, 2 h (equilibrium); association buffer listed without Mg. Conditions: protein: recombinant; tags: His6 (N-terminal, pFastBac HTA); label: 32P 5' on target; guide g2-g8 paired with target ACACUCC; remainder unpaired.

Data set [13] concerns the target T3, AGO2 L192P. The data set is described as above. Conditions: protein: recombinant; tags: His6 (N-terminal, pFastBac HTA); label: 32P 5' on target; guide g2-g8 paired with target ACACUCC; remainder unpaired.
Data set [14] concerns the target T3, AGO2 L192P. Description: filter binding (dissociation); 300 nM unlabeled target chase; slowest release; 30 mM Tris pH 8.0, 100 mM KOAc, 2 mM MgOAc, 0.5 mM TCEP, 0.005% NP-40, 0.01 mg/ml yeast tRNA, room temperature, 2 h (equilibrium); association buffer listed without Mg. Conditions: protein: recombinant; tags: His6 (N-terminal, pFastBac HTA); label: 32P 5' on target; guide g2-g8 paired with target ACACUCC; remainder unpaired.

Where only a bound is given, the exact number is not on record here.

T1 sequence (Q9UKV8 whole entry T357M/S387D/S824A/S828D/S831D/S834A): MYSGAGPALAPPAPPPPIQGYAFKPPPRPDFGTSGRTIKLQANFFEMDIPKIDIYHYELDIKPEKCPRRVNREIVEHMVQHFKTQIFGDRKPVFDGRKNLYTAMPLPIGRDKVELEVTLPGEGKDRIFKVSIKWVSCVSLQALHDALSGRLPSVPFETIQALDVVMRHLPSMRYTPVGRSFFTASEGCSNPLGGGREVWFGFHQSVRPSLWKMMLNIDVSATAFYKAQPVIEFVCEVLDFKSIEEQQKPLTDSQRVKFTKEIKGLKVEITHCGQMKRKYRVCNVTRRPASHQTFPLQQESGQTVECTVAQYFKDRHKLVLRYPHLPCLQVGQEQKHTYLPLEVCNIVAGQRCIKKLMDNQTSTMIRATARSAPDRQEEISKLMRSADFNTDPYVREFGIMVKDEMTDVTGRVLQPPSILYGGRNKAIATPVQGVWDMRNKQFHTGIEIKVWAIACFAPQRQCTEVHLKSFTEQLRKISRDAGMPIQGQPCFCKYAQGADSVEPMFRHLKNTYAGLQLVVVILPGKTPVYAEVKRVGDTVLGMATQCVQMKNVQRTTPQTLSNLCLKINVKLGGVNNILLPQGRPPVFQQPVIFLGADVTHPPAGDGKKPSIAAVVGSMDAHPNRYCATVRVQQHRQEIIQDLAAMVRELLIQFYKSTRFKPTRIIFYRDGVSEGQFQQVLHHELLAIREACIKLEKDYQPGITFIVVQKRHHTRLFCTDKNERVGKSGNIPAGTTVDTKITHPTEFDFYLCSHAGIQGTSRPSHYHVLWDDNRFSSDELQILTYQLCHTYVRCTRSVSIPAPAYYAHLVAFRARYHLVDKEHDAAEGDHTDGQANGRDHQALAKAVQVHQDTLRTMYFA
T3 sequence (Q9UKV8 whole entry L192P/S387D/S824A/S828D/S831D/S834A): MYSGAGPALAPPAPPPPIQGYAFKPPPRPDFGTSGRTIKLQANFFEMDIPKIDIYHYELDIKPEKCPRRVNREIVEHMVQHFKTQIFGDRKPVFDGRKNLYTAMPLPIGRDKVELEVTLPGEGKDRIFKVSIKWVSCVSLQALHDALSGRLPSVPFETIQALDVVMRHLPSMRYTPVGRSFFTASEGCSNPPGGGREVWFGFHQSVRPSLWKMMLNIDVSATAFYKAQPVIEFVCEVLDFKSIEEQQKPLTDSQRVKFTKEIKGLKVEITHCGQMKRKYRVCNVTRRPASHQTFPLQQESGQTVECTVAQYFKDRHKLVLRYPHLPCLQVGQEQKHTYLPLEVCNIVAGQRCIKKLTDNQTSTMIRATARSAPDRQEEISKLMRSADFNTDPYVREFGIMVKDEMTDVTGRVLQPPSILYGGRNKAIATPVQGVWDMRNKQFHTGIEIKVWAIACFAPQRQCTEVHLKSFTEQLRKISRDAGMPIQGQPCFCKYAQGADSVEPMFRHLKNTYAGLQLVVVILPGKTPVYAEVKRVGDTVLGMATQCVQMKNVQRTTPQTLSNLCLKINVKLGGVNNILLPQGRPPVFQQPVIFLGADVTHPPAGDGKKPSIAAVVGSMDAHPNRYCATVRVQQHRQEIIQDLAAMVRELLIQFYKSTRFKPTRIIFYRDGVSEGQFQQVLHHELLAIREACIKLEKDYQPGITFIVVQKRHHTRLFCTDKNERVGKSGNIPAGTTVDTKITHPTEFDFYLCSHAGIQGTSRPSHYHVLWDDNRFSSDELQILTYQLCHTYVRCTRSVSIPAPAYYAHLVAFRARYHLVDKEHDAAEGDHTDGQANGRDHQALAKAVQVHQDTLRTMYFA
T4 sequence (Q9UKV8 other isoform, or with tags, fused parts or gaps S387D;S824A;S828D;S831D;S834A;del182-182): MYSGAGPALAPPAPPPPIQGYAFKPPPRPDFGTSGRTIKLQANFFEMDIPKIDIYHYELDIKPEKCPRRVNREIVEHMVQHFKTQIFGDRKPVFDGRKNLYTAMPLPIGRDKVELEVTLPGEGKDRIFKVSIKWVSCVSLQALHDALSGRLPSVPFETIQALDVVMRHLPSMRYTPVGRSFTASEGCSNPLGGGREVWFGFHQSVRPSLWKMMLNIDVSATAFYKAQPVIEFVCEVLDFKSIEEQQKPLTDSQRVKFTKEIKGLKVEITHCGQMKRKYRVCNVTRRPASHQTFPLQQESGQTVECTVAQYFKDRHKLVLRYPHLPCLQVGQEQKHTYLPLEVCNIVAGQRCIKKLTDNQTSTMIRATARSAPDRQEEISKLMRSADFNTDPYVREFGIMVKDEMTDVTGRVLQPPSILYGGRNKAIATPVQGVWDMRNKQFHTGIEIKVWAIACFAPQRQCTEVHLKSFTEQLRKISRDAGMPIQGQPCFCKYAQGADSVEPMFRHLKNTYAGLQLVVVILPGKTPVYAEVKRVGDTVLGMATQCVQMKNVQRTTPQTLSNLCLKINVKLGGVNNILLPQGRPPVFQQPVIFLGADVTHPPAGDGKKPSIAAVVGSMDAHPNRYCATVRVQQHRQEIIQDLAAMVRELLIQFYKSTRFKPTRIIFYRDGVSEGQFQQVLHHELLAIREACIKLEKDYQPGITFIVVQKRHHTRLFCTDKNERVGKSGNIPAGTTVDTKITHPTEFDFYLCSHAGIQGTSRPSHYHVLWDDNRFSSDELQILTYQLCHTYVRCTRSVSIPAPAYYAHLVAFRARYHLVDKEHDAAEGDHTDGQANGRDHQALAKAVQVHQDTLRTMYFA

B1: miR-122 guide RNA (ssRNA)
RNA: UGGAGUGUGACAAUGGUGUUUG
modifications: 5' phosphate
Consider B1, for which the binding result in data set [1], in data set [2], in [3] and in [4] was “binds” throughout.

B2: miR-122 guide / biotinylated capture oligo (DNA:RNA)
RNA: UGGAGUGUGACAAUGGUGUUUG
DNA: TCTCGTCTAACCATGCCAACACTCCAACTCT
modifications: 5' phosphate on guide
Take B2: the binding result in data set [5], in [6], in data set [7] and in [8] was “binds” throughout.

B3: miR-122 guide / seed-matched target RNA (dsRNA)
RNA 1: UGGAGUGUGACAAUGGUGUUUG
RNA 2: AAAAAAAAAAAAACACUCCUAA
modifications: 5' phosphate on guide
Turning to B3, the binding signal in data set [9] is 1.8 fold lower KD than WT (not significant); in data set [10], ~20 fold slower koff (slow phase) vs near-WT fast phase; in data set [11] it was ~20 fold slower koff (slow phase) vs near-WT fast phase; in data set [12] it was > 5 fold slower association than WT (at least); in data set [13], > 5 fold slower association than WT (at least); in data set [14], ~20 fold slower koff (slow phase) vs near-WT fast phase.

The record behind these values is PMC12529666, “Dysregulation of AGO2-miRNA dynamics underlies the AGO2-associated Lessel–Kreienkamp syndrome”.
